Measured values published in publication PMC4840434, “The interactome of Streptococcus pneumoniae and its bacteriophages show highly specific patterns of interactions among bacteria and their phages” (Scientific Reports, 2016).

Tests used:
Assay in all cases: pull-down; LuMPIS: N-terminally MBP-tagged bait pulled down on amylose beads, N-terminally eGFP-luciferase-tagged prey detected by luciferase activity; both expressed in HEK cells, raw protein extracts; quadruplicates; LIR against MBP without ORF
[1] = target: Dp-1 orf60, Hypothetical protein (LuMPIS construct) (phage Dp-1 of S. pneumoniae)
[2] = target: Dp-1 orf47, Hypothetical protein (LuMPIS construct) (phage Dp-1 of S. pneumoniae)
[3] = target: Dp-1 orf58, Holin (LuMPIS construct) (phage Dp-1 of S. pneumoniae)
[4] = target: Dp-1 orf72, Membrane protein (LuMPIS construct) (phage Dp-1 of S. pneumoniae)
[5] = target: Dp-1 orf16, NAD-dependent DNA ligase (LuMPIS construct) (phage Dp-1 of S. pneumoniae)
[6] = target: Cp-1 orf16, Hypothetical protein (LuMPIS construct) (phage Cp-1 of S. pneumoniae)
[7] = target: Dp-1 orf39, Zinc finger protein (LuMPIS construct) (phage Dp-1 of S. pneumoniae)
[8] = target: Dp-1 orf31, Hypothetical protein (LuMPIS construct) (phage Dp-1 of S. pneumoniae)
[9] = target: Dp-1 orf9, No similarity (LuMPIS construct) (phage Dp-1 of S. pneumoniae)
[10] = target: Dp-1 orf32, Hypothetical protein (LuMPIS construct) (phage Dp-1 of S. pneumoniae)
[11] = target: Dp-1 orf51, Hypothetical protein (LuMPIS construct) (phage Dp-1 of S. pneumoniae)
[12] = target: T1, Cp-1 Cpl1, Lysozyme (LuMPIS construct) (phage Cp-1 of S. pneumoniae, UniProt P15057 1-339); conditions: partners not purified
T1 construct: Cpl1 lysozyme of phage Cp-1; ORF in a Gateway LuMPIS vector; source: HEK cells, raw protein extract
T1 sequence: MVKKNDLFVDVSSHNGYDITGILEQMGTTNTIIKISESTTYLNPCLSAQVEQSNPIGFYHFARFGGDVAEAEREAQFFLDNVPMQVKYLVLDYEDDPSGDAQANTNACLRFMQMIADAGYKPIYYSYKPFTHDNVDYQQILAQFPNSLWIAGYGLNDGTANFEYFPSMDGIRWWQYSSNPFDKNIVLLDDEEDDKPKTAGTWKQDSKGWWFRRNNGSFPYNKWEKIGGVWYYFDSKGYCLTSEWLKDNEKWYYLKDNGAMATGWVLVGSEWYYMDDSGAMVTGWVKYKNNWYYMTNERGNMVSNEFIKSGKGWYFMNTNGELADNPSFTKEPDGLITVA

[13] = target: Dp-1 orf33, Hypothetical protein (LuMPIS construct) (phage Dp-1 of S. pneumoniae)

“SP_2024, PTS system, IIA component (LuMPIS construct) (from UniProt A0A0H2US90 1-108) (natural protein)” was tested, and the LIR (luminescence intensity ratio against MBP alone) [1] was 5.

Work on “SP_0687, ABC transporter, ATP-binding protein (LuMPIS construct) (from UniProt A0A0H2UP48 1-213) (natural protein)” yielded an LIR (luminescence intensity ratio against MBP alone) [2] of 4.

“SP_1606, glycosyl transferase, family 2 (LuMPIS construct) (from UniProt A0A0H2UQY5 1-320) (natural protein)” showed an LIR (luminescence intensity ratio against MBP alone) [3] of 3 and an LIR (luminescence intensity ratio against MBP alone) [4] of 50.

“SP_0259, Holliday junction DNA helicase RuvB (LuMPIS construct) (from UniProt Q97SR6 1-332) (natural protein)” was tested, and the LIR (luminescence intensity ratio against MBP alone) [5] was 5, the LIR (luminescence intensity ratio against MBP alone) [6] was 12 and the LIR (luminescence intensity ratio against MBP alone) [7] was 10. It also gave an LIR (luminescence intensity ratio against MBP alone) [8] of 4, an LIR (luminescence intensity ratio against MBP alone) [9] of 11 and an LIR (luminescence intensity ratio against MBP alone) [10] of 3.

B1: SP_1672, recombination protein RecR (LuMPIS construct) (natural protein)
chain: MLYPTPIAKLIDSYSKLPGIGIKTATRLAFYTIGMSADDVNEFAKNLLSAKRELTYCSICGRLTDDDPCSICTDPTRDQTTILVLEDSRDVAAMENIQEYHGLYHVLHGLISPMNGISPDDINLKSLMTRLMDSEVSEVIVATNATADGEATSMYLSRLLKPAGIKVTRLARGLAVGADIEYADEVTLLRAIENRTEL
B1 gave an LIR (luminescence intensity ratio against MBP alone) [11] of 6.

B2: SP_1208, uridine kinase (LuMPIS construct) (natural protein, S. pneumoniae TIGR4, UniProt P67413 1-212, looked up)
chain: MQNRPIIIGVTGGSGGGKTSVSRAILSHFPDEKISMIEHDSYYKDQSHLTFEERVKTNYDHPFAFDTDLMIEQIKELLAGRPVDIPTYDYTEHTRSSKTYRQEPQDVFIVEGILVLEDKRLRDLMDIKIFVDTDDDVRIIRRIKRDMEERGRSLDSVINQYLGVVKPMYHQFIESTKRYADIVIPEGVSNTVAIDLLTTKIAKILEEARNSK
notes: SP_1208 uridine kinase, S. pneumoniae TIGR4; ORF in a Gateway LuMPIS vector; source: HEK cells, raw protein extract
With B2 the “LIR (luminescence intensity ratio against MBP alone)” value [12] was 4.

B3: SP_1088, DNA repair protein RadC (LuMPIS construct) (natural protein)
chain: MYSISFQEDSLLPRERLAKEGVEALSNQELLAILLRTGTRQASVFEIAQKVLNNLSSLTDLKKMTLQELQSLSGIGRVKAIELQAMIELGHRIHKHETLEMESILSSQKLAKKMQQELGDKKQEHLVALYLNTQNQIIHQQTIFIGSVTRSIAEPREILHYAIKHMATSLILVHNHPSGAVAPSQNDDHVTKLVKEACELMGIVLLDHLIVSHSNYFSYREKTDLI
In the case of B3, the LIR (luminescence intensity ratio against MBP alone) [13] is reported as 3.
